The experiment addresses T1, SARS-CoV-2 soluble S ectodomain protein (residue 1-1208), prefusion-stabilized, with T4 fibritin … (SARS-CoV-2, Wuhan-Hu-1 (MN908947), UniProt P0DTC2, K986/V987 replaced by proline residues).
T1 construct: also called SARS-CoV-2 S-protein; whole S protein
The experiment is described as follows: BLI. The following applies: both partners purified.

B1: second SARS-CoV-2/HCoV-HKU1 cross-reactive mAb from the CC40 donor (its name is not printed in the text) (antibody, V domains shown)
VH: EVQLVESGGGVVQPGRSLRLSCVASGFTFSNYGMHWVRQAPGKGLEWVAVMSYDGSVTYYGDSVRGRFTISRDNSKNTLYLQMSSLRTDDTGVYYCAKGQPLDDIWGLGTLVTVSS
VL: EIVMTQSPLSLPVSLGQSASISCRSSQSLVHTDGITYLSWFQQRPGQSPRRLLYKVSNRDSGVPDRFSGSGSGTDFTLKISRVEAEDVGVYYCLQGTYWPWTFGQGTKVEIK
notes: also called one of the two cross-reactive mAbs from the CC40 donor
B1: the binding result is “binds”.

B2: mAb CC9.2 (IgG) (antibody, V domains shown)
VH: EVQLVESGGGLVQPGRSLRLSCVAPGFTLGGYGMHWVRQAPGKGLEWVGLISYDGSVQKYGSSVKGRFTISKDNSKNTLYLEMNSLRADDTAVYFCVKGASLGDNWGQGTLVTVSS
VL: EIVMTQSPLSLPVTLGQPASISCRSSQSLVYSDGDTYMSWFHQRPGQSPRRLIYKVSNRDFGVPDRFSGSGSGTDFTLKISRVEAEDVGVYYCMQGTHWPYTFGPGTKVEIK
Take B2: the binding result was “binds”.

B3: mAb CC9.1 (antibody, V domains shown)
VH: EVQLVESGGGLVQPGRSLRLSCVAPGFTLGGYGMHWVRQAPGKGLEWVGLISYDGSVQKYGSSVKGRFTISKDNSKNTLYLEMNSLRADDTAVYFCVKGASLGDNWGQGTLVTVSS
VL: EIVMTQSPLSLPVTLGQPASISCRSSQSLVYSDGDTYMSWFHQRPGQSPRRLIYKVSNRDSGVPDRFSGSGSGTDFTLKISRVEAEDVGVYYCMQGTHWPYTFGPGTKVEIK
As to B3, the binding result was “binds”.
